Paper PMC2811012 (Nucleic Acids Research, 2009)
Blank lines part the entries; values can stand above or below the compound they belong to.

What was measured:
[1] = target: T1, GST-MPP8 (MPP8 chromodomain) (Homo sapiens, UniProt Q99549); experiment: AlphaScreen competitive binding, GST-MPP8/b-H3K9me3
T1 sequence (Q99549 50-120): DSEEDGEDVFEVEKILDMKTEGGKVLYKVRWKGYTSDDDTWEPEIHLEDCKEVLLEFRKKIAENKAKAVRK

[2] = target: Human M-phase phosphoprotein chromodomain-containing region (amino acids 50–120) with N-terminal GST tag (human) (UniProt Q99549); experiment: AlphaScreen or HTRF
[3] = target: Mouse heterochromatin protein 1-beta chromodomain-containing region (amino acids 1–185) with N-terminal GST tag (mouse) (UniProt P83917); experiment: AlphaScreen or HTRF
Sequence of Mouse heterochromatin protein 1-beta chromodomain-containing region (amino acids 1–185) with N-terminal GST tag (mouse) (P83917 whole entry, the tested form may be a part): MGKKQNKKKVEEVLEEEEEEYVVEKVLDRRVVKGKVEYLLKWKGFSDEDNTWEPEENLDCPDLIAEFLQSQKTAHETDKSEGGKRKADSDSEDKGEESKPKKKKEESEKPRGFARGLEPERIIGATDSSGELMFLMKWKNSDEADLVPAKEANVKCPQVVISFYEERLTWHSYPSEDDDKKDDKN

Compound: C[C@H](N)C(=O)N[C@@H](CCCNC(=N)N)C(=O)N[C@H](C(=O)N[C@@H](CCCCN)C(=O)N[C@@H](CCC(N)=O)C(=O)N[C@H](C(=O)N[C@@H](C)C(=O)N[C@@H](CCCNC(=N)N)C(=O)N[C@@H](CCCCN)C(=O)N[C@@H](CO)C(=O)N[C@H](C(=O)NCC(=O)NCC(=O)N[C@@H](CCCCN)C(=O)N[C@@H](C)C(=O)N1CCC[C@H]1C(=O)N[C@@H](CCCNC(=N)N)C(=O)N[C@@H](CCCCN)C(=O)O)[C@@H](C)O)[C@@H](C)O)[C@@H](C)O [Peptide H3]
EC50 [1]: 160 µM

AlphaScreen signal [2]: 26000 c.p.s.
AlphaScreen signal [3]: 7800 c.p.s.
Compound: biotinylated histone H3 peptide trimethylated at Lys4

fold AlphaScreen signal over b-H3K4me3 [2]: 1.7 fold
fold AlphaScreen signal over b-H3K4me3 [3]: 3.3 fold
Compound: biotinylated histone H3 peptide trimethylated at Lys9
